Values belong to the binder of their own block, whether it stands above or below them.
Columns and labels:
[1] = target: T1, RAR/RXR heterodimer (RARAΔABF with RXRAΔAB) (mouse (printed as MmRARAΔABF; the same …, UniProt P11416 82-421; P19793 126-462); assay: MST; RAR/RXR without DNA, with BMS493; heterodimer titrated against labelled NCoRNID; same buffer, 22°C; settings: both partners purified
T1 construct: retinoic acid receptor alpha, residues 82-421 of Uniprot entry P11416; as the chain of m1; as the chain of m2; 1:1 heterodimer by SEC-MALS; this is told in the format of each assay; also called RR–DR0; source: E. coli BL21 (DE3); RAR and RXR purified separately, mixed (2-fold excess of RAR), heterodimer purified by SEC (Superdex 200); not shown: His6, N-terminal, cleaved
T1 sequence (looked up) 1: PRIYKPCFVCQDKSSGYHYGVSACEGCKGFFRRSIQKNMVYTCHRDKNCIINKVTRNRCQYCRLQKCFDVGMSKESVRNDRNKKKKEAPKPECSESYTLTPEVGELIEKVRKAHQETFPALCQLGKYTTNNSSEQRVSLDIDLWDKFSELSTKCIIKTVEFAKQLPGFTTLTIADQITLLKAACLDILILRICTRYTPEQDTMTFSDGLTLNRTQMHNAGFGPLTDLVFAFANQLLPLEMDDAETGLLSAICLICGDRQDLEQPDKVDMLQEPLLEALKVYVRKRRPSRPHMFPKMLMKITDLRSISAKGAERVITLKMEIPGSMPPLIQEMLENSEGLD
T1 sequence (looked up) 2: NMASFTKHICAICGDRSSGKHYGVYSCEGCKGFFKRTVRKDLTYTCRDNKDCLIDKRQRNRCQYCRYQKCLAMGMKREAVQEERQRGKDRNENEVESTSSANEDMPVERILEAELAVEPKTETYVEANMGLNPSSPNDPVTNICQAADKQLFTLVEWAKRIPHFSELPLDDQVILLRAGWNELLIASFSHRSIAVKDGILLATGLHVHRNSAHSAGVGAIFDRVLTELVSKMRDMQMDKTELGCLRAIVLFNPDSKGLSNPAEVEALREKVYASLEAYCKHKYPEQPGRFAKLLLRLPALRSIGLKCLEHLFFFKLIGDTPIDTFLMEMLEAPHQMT

[2] = target: T1, RAR/RXR heterodimer (RARAΔABF with …); assay: MST; RR–DR5 with BMS493; heterodimer titrated against labelled NCoRNID; same buffer, 22°C; settings: both partners purified
[3] = target: T1, RAR/RXR heterodimer (RARAΔABF with …); assay: MST; RR–IR0 with BMS493; heterodimer titrated against labelled NCoRNID; same buffer, 22°C; settings: both partners purified
[4] = target: T1, RAR/RXR heterodimer (RARAΔABF with …); assay: MST; RR–DR1 with the agonists AM580 + CD3254; heterodimer titrated against labelled NCoRNID; same buffer, 22°C; settings: both partners purified
[5] = target: T1, RAR/RXR heterodimer (RARAΔABF with …); assay: MST; RAR/RXR bound to DR0 DNA (RR–DR0), no ligand (apo); heterodimer titrated against labelled NCoRNID; same buffer, 22°C; settings: both partners purified
[6] = target: T1, RAR/RXR heterodimer (RARAΔABF with …); assay: MST; RR–DR0 with BMS493; heterodimer titrated against labelled NCoRNID; same buffer, 22°C; settings: both partners purified
[7] = target: T1, RAR/RXR heterodimer (RARAΔABF with …); assay: MST; RAR/RXR bound to IR0 DNA (RR–IR0), no ligand (apo); heterodimer titrated against labelled NCoRNID; same buffer, 22°C; settings: both partners purified
[8] = target: T1, RAR/RXR heterodimer (RARAΔABF with …); assay: MST; RAR/RXR bound to DR1 DNA (RR–DR1), no ligand (apo); heterodimer titrated against labelled NCoRNID; same buffer, 22°C; settings: both partners purified
[9] = target: T1, RAR/RXR heterodimer (RARAΔABF with …); assay: MST; RAR/RXR bound to DR5 DNA (RR–DR5), no ligand (apo); heterodimer titrated against labelled NCoRNID; same buffer, 22°C; settings: both partners purified
[10] = target: T1, RAR/RXR heterodimer (RARAΔABF with …); assay: MST; RAR/RXR without DNA, no ligand (apo); heterodimer in 2-fold serial dilution from 20 μM, added to an equal volume of 80 nM Atto647N-NCoRNID; 20 mM Tris–HCl pH 7.5, 75 mM NaCl, 75 mM KCl, 2 mM CHAPS, 4 mM MgCl2, 5% glycerol, 0.05% Tween-20; 22°C; settings: both partners purified
[11] = target: T1, RAR/RXR heterodimer (RARAΔABF with …); assay: MST; RR–DR1 with BMS493; heterodimer titrated against labelled NCoRNID; same buffer, 22°C; settings: both partners purified
[12] = target: RARalpha dAB dF;RXRalpha dAB (Mus musculus / Homo sapiens (Methods …, UniProt P11416;P19793 82-421;126-462, |)); assay: SEC-SAXS; apo; Fluorescence anisotropy: 20 mM Tris-HCl pH 7.5, 75 mM NaCl, 75 mM KCl, 2 mM CHAPS, 4 mM MgCl2, 2 mM TCEP, 10% glycerol, 0.5 nM Cy5-DNA, 4 uM ligands, 294 K; settings: protein: recombinant;recombinant; tags: N-terminal His6 (pET15b); copies: 1;1; blunt
[13] = target: RARalpha dAB dF;RXRalpha dAB;NCoR NID (Mus musculus / Homo sapiens (Methods …, UniProt P11416;P19793;Q60974 82-421;126-462;2059-2325, ||)); assay: SEC-SAXS; BMS493; Fluorescence anisotropy: 20 mM Tris-HCl pH 7.5, 75 mM NaCl, 75 mM KCl, 2 mM CHAPS, 4 mM MgCl2, 2 mM TCEP, 10% glycerol, 0.5 nM Cy5-DNA, 4 uM ligands, 294 K; settings: protein: recombinant;recombinant;recombinant; tags: N-terminal His6 (pET15b); copies: 1;1;1; blunt

Kd [1]: 368 nM
Kd [2]: 335 nM
Kd [3]: 289 nM
Kd [4]: 5300 nM
Kd [5]: 414 nM
Kd [6]: 244 nM
Kd [7]: 289 nM
Kd [8]: 531 nM
Kd [9]: 283 nM
Kd [10]: 490 nM
Kd [11]: 499 nM
B1: Atto647N-labeled NCoRNID (domain or fragment, UniProt Q60974 2059-2325, looked up)
chain: QVPRTHRLITLADHICQIITQDFARNQVPSQASTSTFQTSPSALSSTPVRTKTSSRYSPESQSQTVLHPRPGPRVSPENLVDKSRGSRPGKSPERSHIPSEPYEPISPPQGPAVHEKQDSMLLLSQRGVDPAEQRSDSRSPGSISYLPSFFTKLESTSPMVKSKKQEIFRKLNSSGGGDSDMAAAQPGTEIFNLPAVTTSGAVSSRSHSFADPASNLGLEDIIRKALMGSFDDKVEDHGVVMSHPVGIMPGSASTSVVTSSEARRDE
modifications: Atto647N label (site not stated)

B2: DR0L Hoxb13 (dsDNA)
DNA 1: CTTCCAGGAAGGTCAAGGCCAAGTTGAAAG
DNA 2: CTTTCAACTTGGCCTTGACCTTCCTGGAAG
binding result [12]: binds
binding result [13]: binds

From paper PMC12489474, “New structural insights into the control of the retinoic acid receptors RAR/RXR by DNA, ligands, and transcriptional coregulators” (Nucleic Acids Research, 2025)
